Test results published in US20070020327A1.

Target: HLA-A*0201 (human)
Assay: competition with 125I-labelled standard peptide for purified HLA, gel filtration
Conditions: for binding affinity ratio: scale: ratio
[1] = remark: other sources report otherwise

Binder | binding affinity ratio | binding affinity ratio (IC50 of standard peptide / IC50 of test peptide) | also measured
YIRKRYRKFL (modifications not checked) [PAP 84 peptide …] | – | – | binding affinity ratio (IC50 of the standard peptide / IC50 of the test peptide): 0.0002
PAELTDAVKV (modifications not checked) [PSA 125 …] | – | 0.0002 | –
PLVCNGVL (modifications not checked) [Kallikrein 216 PLVGNGVL] | – | 0.0001 | –
PLVCNGVL (modifications not checked) [PSA 212 PLVGNGVL] | – | 0.0001 | –
PADYFAPGV (modifications not checked) [PSM 231 …] | – | 0.0001 | –
PLSEDQLLYL (modifications not checked) [PAP 147 …] | – | 0.0006 | –
PLILSRIV (modifications not checked) [PSA 15 PLILSRIV] | – | 0.0001 | –
LLRLSEPA (modifications not checked) [LLRLSEPA (Kallikrein, position 123, 8 amino acids)] | 0.0001 | – | –
YARTEDFFKL (modifications not checked) [PSM 179 peptide …] | – | – | binding affinity ratio (IC50 of the standard peptide / IC50 of the test peptide): 0.0002
PIDTFPTDPI (modifications not checked) [PAP 49 …] | – | 0.0002 | –
DLMLLRLSEPV (modifications not checked) [peptide 1419.13 (PSA.116.V11 / HuK2.120.V11)] | – | – | IC50 [1]: 50 nM
PLERFAELV (modifications not checked) [PAP 352 …] | – | 0.0001 | –
LLRLSEPA (modifications not checked) [LLRLSEPA (PSA, position 119, 8 amino acids)] | 0.0001 | – | –
PIPVHTVPL (modifications not checked) [PAP 140 …] | – | 0.0002 | –
KVTEFMLCAGL (modifications not checked) [… (Kallikrein, position 191, 11 amino acids)] | – | – | binding affinity ratio [1]: 0.001

Now from value to binder, other results behind:

binding affinity ratio | binding affinity ratio (IC50 of standard peptide / IC50 of test peptide) | Binder | also measured
0.0001 | – | LLEKMGGSA (modifications not checked) [… (PSM, position 305, 9 amino acids)] | –
0.002 | – | KVTKFMLCA (modifications not checked) [… (PSA, position 187, 9 amino acids)] | –
– | 0.0001 | PIGYYDAQKL (modifications not checked) [PSM 296 …] | –
0.0006 | – | LLHETDSAVA (modifications not checked) [… (PSM, position 4, 10 amino acids)] | –
– | 0.0001 | NVIGTLRGAV (modifications not checked) [PSM 357 …] | –
0.0001 | – | LLRLSEPAEL (modifications not checked) [… (PSA, position 119, 10 amino acids)] | –
0.0001 | – | KVVHYRKWI (modifications not checked) [… (PSA, position 241, 9 amino acids)] | –
– | 0.0008 | PLMYSLVHNL (modifications not checked) [PSM 468 …] | –
0.0001 | – | KVVHYRKWI (modifications not checked) [… (Kallikrein, position 245, 9 amino acids)] | –
0.0002 | – | LARAASLSL (modifications not checked) [… (PAP, position 8, 9 amino acids)] | –
0.0002 | – | LAGAKGVIL (modifications not checked) [… (PSM, position 219, 9 amino acids)] | –
0.0001 | – | LAGTEQNFQL (modifications not checked) [… (PSM, position 83, 10 amino acids)] | –
0.0002 | – | LAKELKFVTL (modifications not checked) [… (PAP, position 31, 10 amino acids)] | –
